Laboratory results as given in PMC11445581.

Key:
[1] = biological target: Anaphase Promoting Complex/Cyclosome (APC/C), endogenous, with APC8-mScarlet (human (endogenous in RPE-1)) (UniProt Q9UJX2); experiment: fluorescence cross-correlation spectroscopy (FCCS); in living RPE-1 Cyclin B1-mEmerald+/+; APC8-mScarlet+/+ cells (metaphase by p-0009), measured in the cytoplasm; apparent
[2] = biological target: Anaphase Promoting Complex/Cyclosome (APC/C), endogenous, with APC8-mScarlet (human (endogenous in RPE-1)) (UniProt Q9UJX2); experiment: fluorescence cross-correlation spectroscopy (FCCS); in living RPE-1 Cyclin B1-mEmerald+/+; APC8-mScarlet+/+ cells (metaphase by p-0009), measured at the spindle fibres; apparent
[3] = biological target: Anaphase Promoting Complex/Cyclosome (APC/C), endogenous, with APC8-mScarlet (human (endogenous in RPE-1)) (UniProt Q9UJX2); experiment: fluorescence cross-correlation spectroscopy (FCCS); in living RPE-1 Cyclin B1-mEmerald+/+; APC8-mScarlet+/+ cells (metaphase by p-0009), measured at the spindle poles; apparent
[4] = biological target: Anaphase Promoting Complex/Cyclosome (APC/C), endogenous, with APC8-mScarlet (human (endogenous in RPE-1)) (UniProt Q9UJX2); experiment: fluorescence cross-correlation spectroscopy (FCCS); in living RPE-1 Cyclin B1-mEmerald+/+; APC8-mScarlet+/+ cells (metaphase by p-0009), measured at the chromosomes; apparent
[5] = biological target: Anaphase Promoting Complex/Cyclosome (APC/C) with APC8-mScarlet, endogenous (human (endogenous in RPE-1)) (UniProt Q9UJX2); experiment: fluorescence cross-correlation spectroscopy (FCCS); living RPE-1 Cyclin B1-mEmerald+/+; APC8-mScarlet+/+ cells in metaphase (untreated; similar with MG132), measured at the chromatin (chromosomes); in vivo KD
[6] = biological target: Anaphase Promoting Complex/Cyclosome (APC/C) with APC8-mScarlet, endogenous (human (endogenous in RPE-1)) (UniProt Q9UJX2); experiment: fluorescence cross-correlation spectroscopy (FCCS); living RPE-1 Cyclin B1-mEmerald+/+; APC8-mScarlet+/+ cells in metaphase (untreated; similar with MG132), measured in the cytoplasm; in vivo KD
[7] = biological target: Nucleosome Core Particle NCP147, P04908;P68431;P62805; experiment: EMSA; settings: 2 µM Cyclin B1; parent: est. 18; read off a plot

“Cyclin B1-mEmerald (endogenous) (from UniProt P14635 1-433) (natural protein)” showed a Kd [1] of 176 nM, a Kd [2] of 71 nM and a Kd [3] of 81 nM. It also gave a Kd [4] of 83 nM.

Work on “Cyclin B1-mEmerald (endogenous, both alleles tagged) (from UniProt P14635 1-433) (natural protein)” yielded a Kd [5] of 80 nM and a Kd [6] of 180 nM.

Substance “Cyclin B1^WT-StrepII, full length (from UniProt P14635) L3A; R4A; V5A; T6A; R7A” has an other: Unbound NCP147 (%) [7] of 85%.

Work on “Cyclin B1^WT-StrepII, full length (from UniProt P14635) R4E; R7E” yielded an other: Unbound NCP147 (%) [7] of 54%.
